# T1: PA-hST6Gal II (human ST6Gal II) (Homo sapiens, UniProt Q96JF0)
# T1 construct: amino acids 33-529 in the case of human ST6Gal II; signal peptide of mouse immunoglobulin IgM (N); made in house; host or cells: COS-7 cells, transient expression of pcDSA-hST6Gal II; protein recovered from medium on IgG-Sepharose
# T1 sequence (Q96JF0 33-529): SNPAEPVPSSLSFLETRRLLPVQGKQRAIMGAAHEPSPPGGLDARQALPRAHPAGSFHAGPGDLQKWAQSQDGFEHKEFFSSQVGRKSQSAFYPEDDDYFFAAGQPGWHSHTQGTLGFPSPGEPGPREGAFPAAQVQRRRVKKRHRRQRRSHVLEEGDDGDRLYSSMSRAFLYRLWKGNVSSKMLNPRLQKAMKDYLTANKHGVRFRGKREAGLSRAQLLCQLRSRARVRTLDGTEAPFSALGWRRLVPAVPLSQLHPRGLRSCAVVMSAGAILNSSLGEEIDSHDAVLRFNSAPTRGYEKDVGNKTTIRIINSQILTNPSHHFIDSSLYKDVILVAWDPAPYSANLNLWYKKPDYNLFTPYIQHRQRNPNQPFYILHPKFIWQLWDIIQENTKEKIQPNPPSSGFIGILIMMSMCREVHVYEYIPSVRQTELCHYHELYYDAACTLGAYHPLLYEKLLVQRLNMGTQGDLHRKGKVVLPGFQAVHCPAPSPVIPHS
# T2: human ST6Gal I (Homo sapiens, UniProt P15907)
# T2 sequence (P15907 1-406): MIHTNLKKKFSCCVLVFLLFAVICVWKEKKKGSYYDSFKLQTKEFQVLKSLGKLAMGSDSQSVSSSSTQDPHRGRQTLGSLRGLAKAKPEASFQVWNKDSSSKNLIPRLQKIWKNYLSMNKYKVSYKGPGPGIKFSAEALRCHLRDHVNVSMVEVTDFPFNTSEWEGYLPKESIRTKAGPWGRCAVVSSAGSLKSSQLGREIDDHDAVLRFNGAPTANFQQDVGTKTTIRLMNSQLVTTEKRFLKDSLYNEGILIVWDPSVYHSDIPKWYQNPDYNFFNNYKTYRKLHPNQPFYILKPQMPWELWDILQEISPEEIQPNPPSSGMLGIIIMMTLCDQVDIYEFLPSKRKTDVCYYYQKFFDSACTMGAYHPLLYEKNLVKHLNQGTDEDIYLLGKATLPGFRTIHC
# B1: Ovomucoid: glycoprotein acceptor substrate which contains only N-glycans (protein, UniProt P01005 25-210, looked up)
# Ovomucoid: AEVDCSRFPNATDKEGKDVLVCNKDLRPICGTDGVTYTNDCLLCAYSIEFGTNISKEHDGECKETVPMNCSSYANTTSEDGKVMVLCNRAFNPVCGTDGVTYDNECLLCAHKVEQGASVDKRHDGGCRKELAAVSVDCSEYPKPDCTAEDRPLCGSDNKTYGNKCNFCNAVVESNGTLTLSHFGKC
# B2: Asialoovomucoid: desialylated ovomucoid prepared at 80° C. for 1 hour in 0.02 N HCl (protein, UniProt P01005 25-210, looked up)
# Ovomucoid: B1 Ovomucoid
# modifications: desialylated
# notes: desialylated ovomucoid prepared at 80° C. for 1 hour in 0.02 N HCl
# Tests used:
# [1] = molecular target: T1, PA-hST6Gal II (human ST6Gal II); assay: Sialyltransferase activity of PA-hST6Gal II toward acceptor substrates; format: biochemical; conditions: PA-hST6Gal II; incorporation with Galβ1,4GlcNAc taken as 100; 0.5 mg/ml glycolipids, 1 mg/ml glycoproteins and oligosaccharides
# Experimental: (§1) Using each expression vector and lipofectamine (Invitrogen), transient expression was carried out in COS-7 cells (Kojima, N. et al. (1995) FEBS Lett. 360, 1-4). The proteins of the present invention secreted from the cells into which each expression vector had been introduced were named as PA-hST6Gal II (human) and PA-mST6Gal II (mouse). PA-hST6Gal II and PA-mST6Gal II were adsorbed to IgG-Sepharose (Amersham Pharmacia Biotech), and were then recovered from medium. Sialyltransferase activity was measured as follows according to the method of Lee et al. (Lee, Y.-C. et al. (1999) J Biol. Chem. 274, 11958-11967). A reaction mixture (10 μl) containing 50 mM MES buffer (pH 6.0), 1 mM MgCl2, 1 mM CaCl2, 0.5% Triton CF-54, 100 μM CMP-[^14C]-NeuAc, a substrate sugar chain (which was added at 0.5 mg/ml in the case of glycolipids, and at 1 mg/ml in the case of glycoproteins or oligosaccharides), and a PA-hST6Gal II or PA-mST6Gal II suspension, was incubated at 37° C. for 3 to 20 hours. Thereafter, in the case of glycolipids, the reaction product was purified with a C-18 column (Sep-Pak Vac 100 mg; Waters) and the purified product was used as a sample. In the case of oligosaccharides or glycoproteins, the reaction product was directly used as a sample. Thus, the obtained sample was subjected to analysis. In the case of oligosaccharides or glycolipids, the sample was spotted on a silica gel 60 HPTLC plate (Merck), and it was then developed with a developing solvent consisting of 1-propanol:ammonia water:water=6:1:2.5 (for oligosaccharides), or a developing solvent consisting of chloroform:methanol: 0.02% CaCl2=55:45:10 (for glycolipids). In the case of glycoproteins, analysis was carried out by SDS-polyacrylamide gel electrophoresis. The obtained radioactivities were visualized with a BAS2000 radio image analyzer (Fuji Film) and then quantified.
# human ST6Gal I = molecular target: T2, human ST6Gal I; assay: Sialyltransferase activity of human ST6Gal I toward acceptor substrates (comparison); format: biochemical; conditions: incorporation with Galβ1,4GlcNAc taken as 100; 0.5 mg/ml glycolipids, 1 mg/ml glycoproteins and oligosaccharides
# Experimental: as §1
# In contrast, there were no glycolipids, which could be substrates of both the enzymes, as far as the inventors have examined. The activity of human ST6Gal I on oligosaccharides was also examined for comparison. […] (FIG. 10).
Molecule,Relative rate (%) Human ST6Gal II [1] [%],Relative rate (%) Human ST6Gal I (human ST6Gal I) [%]
Asialo- α1-Acid glycoprotein: desialylated α1-acid glycoprotein prepared at 80° C. for 1 hour in 0.02 N HCl,1.2,93.0
Asialofetuin: asialo glycoprotein acceptor substrate purchased from Sigma,3.9,95.0
"Fetuin: glycoprotein acceptor substrate containing both O-glycans and N-glycans, purchased from Sigma",0,13.0
"Galβ1,3GalNAcβ1,4(NeuAcα2,3)Galβ1,4Glcβ1-Cer [GM1a]",0,0
"Galβ1,4Glcβ1-Cer [Lactosylceramide]",0,0
"NeuAcα2,3Galβ1,4Glcβ1-Cer [GM3]",0,0
α1-Acid glycoprotein: glycoprotein acceptor substrate purchased from Sigma,1.2,37.1
B1,0,9.0
B2,0,12.7

# — patent publication US20060057696A1, “Sugar chain synthases” (priority 2002, published 2006)
